Patent US20220332804A1 (CSL INNOVATION, published 2022)

Experiments:
human complement C2 [1] = biological target: T1, human complement C2 (human, UniProt P06681 21-752); test: SPR, mAb captured, C2 analyte, MHAs buffer, pH 6.0, steady state
T1 construct: Recombinant full-length human C2 with C-terminal 8x His tag, purified from Expi293F supernatant; also called human C2; huC2
T1 sequence: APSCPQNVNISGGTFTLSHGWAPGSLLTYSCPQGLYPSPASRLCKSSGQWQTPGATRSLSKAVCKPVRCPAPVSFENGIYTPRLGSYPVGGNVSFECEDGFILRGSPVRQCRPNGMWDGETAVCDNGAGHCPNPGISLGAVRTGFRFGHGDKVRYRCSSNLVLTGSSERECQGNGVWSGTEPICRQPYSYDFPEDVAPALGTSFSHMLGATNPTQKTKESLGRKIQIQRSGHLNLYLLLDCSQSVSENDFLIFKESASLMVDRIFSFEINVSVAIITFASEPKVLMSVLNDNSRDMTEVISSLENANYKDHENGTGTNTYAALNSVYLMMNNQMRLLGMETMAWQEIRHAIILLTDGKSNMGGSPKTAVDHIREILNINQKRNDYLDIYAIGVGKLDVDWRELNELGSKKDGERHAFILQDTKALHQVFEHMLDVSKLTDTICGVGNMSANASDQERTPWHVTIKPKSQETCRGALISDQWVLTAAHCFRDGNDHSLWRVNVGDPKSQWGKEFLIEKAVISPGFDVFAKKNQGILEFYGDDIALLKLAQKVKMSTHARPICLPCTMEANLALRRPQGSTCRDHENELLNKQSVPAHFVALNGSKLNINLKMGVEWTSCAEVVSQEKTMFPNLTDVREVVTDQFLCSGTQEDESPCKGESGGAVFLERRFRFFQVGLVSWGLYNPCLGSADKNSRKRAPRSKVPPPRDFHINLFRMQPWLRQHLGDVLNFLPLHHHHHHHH
Experimental: Surface plasmon resonance (SPR, Biacore) was used for all binding affinity analyses. In brief, goat anti-human IgG was directly immobilised onto the carboxymethyl dextran surface of CM5 sensorchips to approximately 12,000 RU using standard NHS/EDC chemistry at pH 5. The immobilised antibody surface was pre-conditioned with ten injections of polyclonal human IgG (Privigen 60 s) prepared at 1 μg/mL. Ligands (anti-C2 mAbs) were captured at the beginning of each cycle as described below. An adjacent spot or flow cell in which only Polyclonal IgG was capture was used as a reference surface. The goat anti-human IgG Fc antibody surface was regenerate in 100 mM H3PO4, injected for 45 seconds at the end of each cycle. Experiments were performed at 37° C. and the flow rate of each experiment was kept constant at 30 μL/min.
This buffer contains ammonium sulfate instead of sodium chloride.

human C2 S428A = biological target: T2, human C2 S428A (human, UniProt P06681 21-752); test: SPR, mAb captured, C2 mutant analyte;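 further: Anti-C2 mAbs captured on goat anti-human IgG Biacore CM5 chips, alanine or serine C2 surface mutants flowed over at 37 °C, double-referenced sensorgrams fitted to a 1:1 binding model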
T2 sequence: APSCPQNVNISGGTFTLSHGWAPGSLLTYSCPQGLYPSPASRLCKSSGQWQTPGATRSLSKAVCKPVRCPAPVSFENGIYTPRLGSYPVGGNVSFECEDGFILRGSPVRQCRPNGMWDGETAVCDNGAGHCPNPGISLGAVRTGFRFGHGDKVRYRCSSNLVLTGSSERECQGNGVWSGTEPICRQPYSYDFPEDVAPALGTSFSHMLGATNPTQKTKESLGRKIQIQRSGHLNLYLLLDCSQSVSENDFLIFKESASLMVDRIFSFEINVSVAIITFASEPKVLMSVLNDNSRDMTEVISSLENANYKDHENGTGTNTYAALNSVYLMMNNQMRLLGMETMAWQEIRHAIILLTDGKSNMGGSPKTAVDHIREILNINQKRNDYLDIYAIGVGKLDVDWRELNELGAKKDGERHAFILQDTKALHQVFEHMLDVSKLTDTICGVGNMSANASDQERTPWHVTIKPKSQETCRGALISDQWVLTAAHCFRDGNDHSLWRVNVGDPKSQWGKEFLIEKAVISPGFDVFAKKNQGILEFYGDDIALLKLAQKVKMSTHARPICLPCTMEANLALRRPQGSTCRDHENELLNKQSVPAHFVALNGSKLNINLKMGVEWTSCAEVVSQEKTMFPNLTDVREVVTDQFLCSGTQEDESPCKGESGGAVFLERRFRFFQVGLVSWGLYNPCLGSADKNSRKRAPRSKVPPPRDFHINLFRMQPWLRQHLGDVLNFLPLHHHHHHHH

human C2 H451A = biological target: T3, human C2 H451A (human, UniProt P06681 21-752); test: SPR, mAb captured, C2 mutant analyte;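 further: Anti-C2 mAbs captured on goat anti-human IgG Biacore CM5 chips, alanine or serine C2 surface mutants flowed over at 37 °C, double-referenced sensorgrams fitted to a 1:1 binding model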
T3 sequence: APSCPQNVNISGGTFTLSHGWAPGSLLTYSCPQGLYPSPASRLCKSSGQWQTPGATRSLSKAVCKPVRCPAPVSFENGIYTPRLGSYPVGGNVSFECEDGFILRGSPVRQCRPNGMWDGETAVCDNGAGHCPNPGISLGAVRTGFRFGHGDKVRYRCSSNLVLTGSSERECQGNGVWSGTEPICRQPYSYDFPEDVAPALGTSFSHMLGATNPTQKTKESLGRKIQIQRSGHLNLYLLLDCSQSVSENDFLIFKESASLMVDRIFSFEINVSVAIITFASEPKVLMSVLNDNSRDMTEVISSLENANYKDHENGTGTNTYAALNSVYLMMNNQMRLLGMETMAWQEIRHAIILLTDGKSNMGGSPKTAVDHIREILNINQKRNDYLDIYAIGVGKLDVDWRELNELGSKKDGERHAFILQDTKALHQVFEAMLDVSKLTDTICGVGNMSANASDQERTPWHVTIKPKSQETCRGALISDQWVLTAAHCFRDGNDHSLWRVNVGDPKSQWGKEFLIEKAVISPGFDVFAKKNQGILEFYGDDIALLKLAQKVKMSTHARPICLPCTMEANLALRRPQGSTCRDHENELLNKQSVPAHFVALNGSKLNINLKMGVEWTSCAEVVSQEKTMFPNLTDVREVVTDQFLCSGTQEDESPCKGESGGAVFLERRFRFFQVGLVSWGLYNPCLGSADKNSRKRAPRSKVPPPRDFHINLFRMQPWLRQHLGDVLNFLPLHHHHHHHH

human complement C2 [2] = biological target: T1, human complement C2; test: SPR, mAb captured, huC2 analyte, pH 6, steady state
human FcRn/β2m = biological target: T4, human FcRn/β2m (human, UniProt P55899 24-297; P61769 21-119); test: SPR, antibody immobilised, FcRn/β2m analyte, pH 6.0; pH 6.0
T4 construct: Soluble FcRn/β2m injected as analyte over immobilised antibody; also called neonatal Fc receptor
T4 sequence (P55899 24-297 limits assumed, chain 1 of 2): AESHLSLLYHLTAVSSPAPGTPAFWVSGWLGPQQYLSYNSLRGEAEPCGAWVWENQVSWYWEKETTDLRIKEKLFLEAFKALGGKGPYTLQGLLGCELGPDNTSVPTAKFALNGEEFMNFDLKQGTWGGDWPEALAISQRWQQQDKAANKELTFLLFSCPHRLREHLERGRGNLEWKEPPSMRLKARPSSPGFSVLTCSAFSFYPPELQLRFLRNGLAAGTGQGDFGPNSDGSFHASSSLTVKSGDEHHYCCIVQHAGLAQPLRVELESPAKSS
T4 sequence (P61769 21-119 limits assumed, chain 2 of 2): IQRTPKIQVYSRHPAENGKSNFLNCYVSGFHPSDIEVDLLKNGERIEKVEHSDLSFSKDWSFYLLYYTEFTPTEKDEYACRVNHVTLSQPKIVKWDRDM
Experimental: Anti-C2 mAbs (1 μg/mL at pH 5) were immobilized on a carboxylmethyldextran (CM5) sensorchip surface using standard EDC/NHS chemistry. Human and Cyno FcRn/β2m (40 μM) were prepared in running buffer (10 mM HEPES, 150 mM NaCl, 10 mM MES adjusted to either pH 6 or pH 7.3) and injected on the immobilized anti-C2 surface at concentrations ranging from 0.078 to 40 μM, prepared in two-fold dilutions in running buffer. Association and dissociation phases were monitored for 180 and 600 seconds, respectively. […] Double referenced sensorgrams were fitted to either a 1:1 kinetic model (pH 6), including a term for mass transport limitation or to a 1:1 steady state model (pH 7.3) where responses at the end of the association phase were plotted against respective concentrations.
Binding to both human and cynomolgus monkey FcRn was tested using the SPR methods described above.

B1: RF16-214 (antibody, V domains shown)
VH: EVQLLESGGGLVQPGGSLRLSCAASGFTFSWYQMMWVRQAPGKGLEWVSRIYPSGGGTAYADSVKGRFTISRDNSKNTLYLQMNSLRAEDTAVYYCARDAGYGDNWGQGTLVTVSS
VL: QSALTQPPSVSVSPGQTASITCSGDKLGEKYASWYQQKAGQSPVMVIYQDRKRPSGIPERFSGSNSGNTATLTISGTQAMDEADYYCQAWDTRAVVFGGGTKLTVLG
B1 gave a Kd (human complement C2 [1]) of 2.17 µM, a Kd (human C2 S428A) of 0.0586 µM and a Kd (human C2 H451A) of 0.138 µM.

B2: RF16-226 (antibody)
heavy: not shown
light: SYELTQPPSVSVSPGQTARITCSGDALTSKYVAWYQQKSGLAPLLVIYEDTRRPSGIPAKFSGSSSGSVATLTISGAHGDDEADYYCYSTDASGHQRVFGGGTKLTVLSQPKAAPSVTLFPPSSEELQANKATLVCLISDFYPGAVTVAWKADGSPVKAGVETTKPSKQSNNKYAASSYLSLTPEQWKSHRSYSCQVTHEGSTVEKTVAPTECS
Work on B2 yielded a Kd (human complement C2 [1]) of 2.23 µM and a Kd (human complement C2 [2]) of roughly 0.095 µM.

B3: RF16-226 (antibody, human IgG4 S228P, lambda)
heavy: not shown
light: SYELTQPPSVSVSPGQTARITCSGDALTSKYVAWYQQKSGLAPLLVIYEDTRRPSGIPAKFSGSSSGSVATLTISGAHGDDEADYYCYSTDASGHQRVFGGGTKLTVLSQPKAAPSVTLFPPSSEELQANKATLVCLISDFYPGAVTVAWKADGSPVKAGVETTKPSKQSNNKYAASSYLSLTPEQWKSHRSYSCQVTHEGSTVEKTVAPTECS
notes: pH-dependent anti-C2 antibody from a phage display library; also called WT
In the case of B3, the Kd (human FcRn/β2m) is reported as 3.8 µM.
